# Assay results reported in the supplement of paper PMC12764529.
# ± gives the half width of the 95% confidence interval.
# Legend:
# [1] = folding stability dG unfold (combined trypsin and chymotrypsin); higher = more stable
# Procedure, shortened: (§1)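 Designed mini-proteins with no cysteine and under 80 residues were kept only if AlphaFold2 dimer inter-PAE was above 15. In a PA-tagged cDNA display construct, they were digested with trypsin and chymotrypsin and then sequenced. K50 was inferred by Bayesian fitting of counts, and unfolding free energy was derived per protease or combined against a sequence-predicted unfolded-state K50 and a shared folded-state K50.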
# [2] = folding stability dG unfold from chymotrypsin proteolysis; higher = more stable
# Procedure, shortened: as §1
# [3] = folding stability dG unfold from trypsin proteolysis; higher = more stable
# Procedure, shortened: as §1
sequence,measurement,setting,value
SAGGEEEKVVLTPEEIERLLKELAEALGLEVTITEIEVEEDYVTITVEIKVDGKTLTLTLKLRIEPEPSAGG [r13_652_TrROS_Hall],folding stability dG unfold,[1],5.14 ± 0.36 kcal/mol
same,folding stability dG unfold,[2],5.23 ± 0.15 kcal/mol
same,folding stability dG unfold,[3],4 ± 0.42 kcal/mol
SAGGEEGKPKWVEMWIFIPKEILEDIKQGEPLTVKQIAQKIGFPPNIEVKIIEREGDYIYVRITIPVSAGGS [r16_679_TrROS],folding stability dG unfold,[1],4.66 ± 0.27 kcal/mol
same,folding stability dG unfold,[2],4.66 ± 0.11 kcal/mol
same,folding stability dG unfold,[3],4.53 ± 0.25 kcal/mol
SAGGEEKEKLREAIRAALDEAIKEGKKIKKIVIVASPEKKEEIAKLLEEEGLLENLEIEVVSPEELKSAGGS [r16_164_TrROS_Hall],folding stability dG unfold,[1],1.27 ± 0.25 kcal/mol
same,folding stability dG unfold,[2],0.665 ± 0.14 kcal/mol
same,folding stability dG unfold,[3],1.74 ± 0.072 kcal/mol
SAGGEERERIRRLVRELRRRGYKRITADELARLLGREITEEELEALREAGLIELEEEETVEVVLPEEESAGG [r13_188_TrROS_Hall],folding stability dG unfold,[1],4.15 ± 0.14 kcal/mol
same,folding stability dG unfold,[2],4.26 ± 0.085 kcal/mol
same,folding stability dG unfold,[3],4.02 ± 0.16 kcal/mol
SAGGEIEIDENGFIRMTLYDPATGYKIEAEFRILPDGTIEITKIKIEPLPPPPPPKVFVLDENGELVESAGG [r13_646_TrROS_Hall],folding stability dG unfold,[1],2.77 ± 0.38 kcal/mol
same,folding stability dG unfold,[2],3.1 ± 0.086 kcal/mol
same,folding stability dG unfold,[3],3.31 ± 0.2 kcal/mol
SAGGEIEVEVLEVDPETGEVLLKITFDAEPEVIDFLVSLGFDPEHISDDGDGKVTAIVRAPPDLTIASAGGS [r16_755_TrMRF],folding stability dG unfold,[1],2.79 ± 0.09 kcal/mol
same,folding stability dG unfold,[2],3.02 ± 0.061 kcal/mol
same,folding stability dG unfold,[3],2.21 ± 0.087 kcal/mol
SAGGEKEEIIKKLSKYPKNYRVLLKSPDGTLYEYSSPEEVIKMPLTLPNGKEVIIVKISPEKSPKLLSAGGS [r16_680_JUSTAS],folding stability dG unfold,[1],0.758 ± 0.099 kcal/mol
same,folding stability dG unfold,[2],0.836 ± 0.098 kcal/mol
same,folding stability dG unfold,[3],0.438 ± 0.091 kcal/mol
SAGGEKKVLIVKVEIKLINNGGEFEAEFVFPEDVTLEEILAKVKELLPPGAKAEIKIKEIKLVSEDGSAGGS [r16_393_TrMRF],folding stability dG unfold,[1],3.58 ± 0.39 kcal/mol
same,folding stability dG unfold,[2],2.76 ± 0.15 kcal/mol
same,folding stability dG unfold,[3],3.93 ± 0.18 kcal/mol
SAGGEKLETFPFKGDDDREVTLVRFEGEDRILLLVYDPDTDKVLLIAPDAIAEIDLKTGEAKVILKKSSAGG [r13_416_TrMRF],folding stability dG unfold,[1],1.98 ± 0.049 kcal/mol
same,folding stability dG unfold,[2],2.111 ± 0.016 kcal/mol
same,folding stability dG unfold,[3],1.66 ± 0.046 kcal/mol
SAGGEKVVLEIVLPPELENLTPEELEALKNITLPNGFKITDIELVEENGRLVIRITVDSPEAAEALLKSAGG [r13_269_TrROS_Hall],folding stability dG unfold,[1],2.19 ± 0.22 kcal/mol
same,folding stability dG unfold,[2],2.23 ± 0.056 kcal/mol
same,folding stability dG unfold,[3],2.04 ± 0.086 kcal/mol
SAGGELENLTVEELKALLEELFPDVEVKVTVEKLPEGYYRITVEIRVRLPNGETRRFELELVIRLEDSAGGS [r16_564_TrROS_Hall],folding stability dG unfold,[1],5.22 ± 0.28 kcal/mol
same,folding stability dG unfold,[2],5.36 ± 0.25 kcal/mol
same,folding stability dG unfold,[3],4.03 ± 0.23 kcal/mol
SAGGELPLSDITVESESPVTGGSWTVTLEVPSLGLRITVPAAELGAVAASTPGVATSLSPVSPAEPASAGGS [r16_61_JUSTAS],folding stability dG unfold,[1],0.225 ± 0.091 kcal/mol
same,folding stability dG unfold,[2],0.454 ± 0.093 kcal/mol
same,folding stability dG unfold,[3],-0.251 ± 0.11 kcal/mol
SAGGELSEEFVKKLFENLGFEELEVVDLENKKVAYFRKGNYLVKVYDDGTIEIFDENGELVETINVDSAGGS [r8_147_TrMRF],folding stability dG unfold,[1],3.48 ± 0.19 kcal/mol
same,folding stability dG unfold,[2],3.89 ± 0.053 kcal/mol
same,folding stability dG unfold,[3],2.26 ± 0.12 kcal/mol
SAGGELTEEQRKRLEEERRRREEEERRRQAAPVKVTVTVEFDPETGEVRVRVFNENGELVAEARFKVESAGG [r13_247_TrROS_Hall],folding stability dG unfold,[1],3.17 ± 0.19 kcal/mol
same,folding stability dG unfold,[2],3.77 ± 0.14 kcal/mol
same,folding stability dG unfold,[3],2.08 ± 0.092 kcal/mol
SAGGEPGALSSSTYTITAPAKSVSKTVTVSYNPADGTATITFPESGKTITVPAVSDEEVLALIKEILLSAGG [r13_439_JUSTAS],folding stability dG unfold,[1],0.322 ± 0.065 kcal/mol
same,folding stability dG unfold,[2],-0.67 ± 0.31 kcal/mol
same,folding stability dG unfold,[3],0.697 ± 0.025 kcal/mol
SAGGEPLFGGSFSAEPYRTADGRLVYIVPEVTLPNGRKARAAVIYDPSTGRPIVVLYLGDKPIVLDASAGGS [r16_766_TrMRF],folding stability dG unfold,[1],2.24 ± 0.026 kcal/mol
same,folding stability dG unfold,[2],2.41 ± 0.039 kcal/mol
same,folding stability dG unfold,[3],1.889 ± 0.017 kcal/mol
SAGGEPVLVPVKGTFENPELGVKVEVEAYFFPEFDFALVNVKVTPYSPDGKPLEVEGTFVVSVSELLKSAGG [r13_807_TrMRF],folding stability dG unfold,[1],2.75 ± 0.12 kcal/mol
same,folding stability dG unfold,[2],3.16 ± 0.086 kcal/mol
same,folding stability dG unfold,[3],2.02 ± 0.082 kcal/mol
SAGGERERLLTLEVEIDVPPGVSPEEIAARLAALLPPGAEIERVEIRYDPATRKITVRVVIRLPEGLSAGGS [r16_396_TrROS_Hall],folding stability dG unfold,[1],3.25 ± 0.29 kcal/mol
same,folding stability dG unfold,[2],2.78 ± 0.093 kcal/mol
same,folding stability dG unfold,[3],3.59 ± 0.25 kcal/mol
SAGGERKVKIEVMWNPDDPNYYMISVKFPGQERQFMIDPNDPERIIEFLEDLLGPGYKVDDIEIHPFRSAGG [r13_519_TrROS],folding stability dG unfold,[1],1.67 ± 0.051 kcal/mol
same,folding stability dG unfold,[2],1.61 ± 0.053 kcal/mol
same,folding stability dG unfold,[3],1.562 ± 0.012 kcal/mol
SAGGETIPVVMYDPSTGKELTGEIPLKEALDLLAAGKKTAFIPAGGGPVKVHIEPLPDGTVLIVAESGSAGG [r13_171_TrMRF],folding stability dG unfold,[1],0.636 ± 0.045 kcal/mol
same,folding stability dG unfold,[2],0.71 ± 0.021 kcal/mol
same,folding stability dG unfold,[3],0.576 ± 0.026 kcal/mol
SAGGETLEVKLKNGYLLRIDLETGKVEVRPLKPVKIELKIEVKPPPVEVKLEKEIKLEKKIEVKVEFSAGGS [r16_453_TrROS_Hall],folding stability dG unfold,[1],2.15 ± 0.18 kcal/mol
same,folding stability dG unfold,[2],2.51 ± 0.062 kcal/mol
same,folding stability dG unfold,[3],1.82 ± 0.19 kcal/mol
SAGGEVEVKEITMTAEELRELIEELKKEGYLVVIENKTGEKKVIPVKEDDLKPGDEVKIRVFKLKKPSAGGS [r16_31_TrROS_Hall],folding stability dG unfold,[1],0.733 ± 0.31 kcal/mol
same,folding stability dG unfold,[2],0.691 ± 0.39 kcal/mol
same,folding stability dG unfold,[3],0.537 ± 0.14 kcal/mol
SAGGEVKITVEKKGDGTVTVTITVKAKSLEDLLKALESLPGVEITKVEIEKDKETNEYTIRVTIKVKPSAGG [r13_796_TrROS_Hall],folding stability dG unfold,[1],3.64 ± 0.15 kcal/mol
same,folding stability dG unfold,[2],4.07 ± 0.11 kcal/mol
same,folding stability dG unfold,[3],2.67 ± 0.068 kcal/mol
SAGGEVRIEVEIEVDPETGTVTVRAKIERDGKLFEVEMTLRVEPEEKPEKAPEVTVTVTVVFKPEGKSAGGS [r16_108_TrROS_Hall],folding stability dG unfold,[1],2.78 ± 0.34 kcal/mol
same,folding stability dG unfold,[2],2.54 ± 0.076 kcal/mol
same,folding stability dG unfold,[3],3.01 ± 0.26 kcal/mol
SAGGFEITEEREAVKTSPPEGPLRVEERLVIEVKSEDPEKALEEAQKETGLPVEVEVDPETGSVTITVRSAG [r5_907_JUSTAS],folding stability dG unfold,[1],0.448 ± 0.18 kcal/mol
same,folding stability dG unfold,[2],0.766 ± 0.11 kcal/mol
same,folding stability dG unfold,[3],-0.523 ± 0.56 kcal/mol
SAGGFKIERDPEDGQVTITFPMPGFGMPFRISIPYDPNGDIDVDIEPSPGMPPHHRDMIENLARELADSAGG [r13_139_TrROS],folding stability dG unfold,[1],0.562 ± 0.13 kcal/mol
same,folding stability dG unfold,[2],0.281 ± 0.43 kcal/mol
same,folding stability dG unfold,[3],0.656 ± 0.16 kcal/mol
